How the values were obtained:
[1] = target: HSP70 (antigen; source and nucleotide state not stated) (Homo sapiens (Human)) (UniProt P0DMV8); experiment: Octet epitope binning, sandwich format on HSP70; table row N15F2-5, column N15F2-5 (self pair)
[2] = target: HSP70 (antigen; source and nucleotide state not stated) (Homo sapiens (Human)) (UniProt P0DMV8); experiment: Octet epitope binning, sandwich format on HSP70; table row m77A (named as competitor), column N15F2-5; the sheet does not say which of row and column was loaded first
[3] = target: HSP70 (antigen; source and nucleotide state not stated) (Homo sapiens (Human)) (UniProt P0DMV8); experiment: Octet epitope binning, sandwich format on HSP70; table row C92F3-5 (named as competitor), column N15F2-5; the sheet does not say which of row and column was loaded first
[4] = target: HSP70 (antigen; source and nucleotide state not stated) (Homo sapiens (Human)) (UniProt P0DMV8); experiment: Octet epitope binning, sandwich format on HSP70; table row m77A (named as competitor), column C92F3-5; the sheet does not say which of row and column was loaded first
[5] = target: HSP70 (antigen; source and nucleotide state not stated) (Homo sapiens (Human)) (UniProt P0DMV8); experiment: Octet epitope binning, sandwich format on HSP70; table row N15F2-5 (named as competitor), column C92F3-5; the sheet does not say which of row and column was loaded first
[6] = target: HSP70 (antigen; source and nucleotide state not stated) (Homo sapiens (Human)) (UniProt P0DMV8); experiment: Octet epitope binning, sandwich format on HSP70; table row C92F3-5, column C92F3-5 (self pair)

Sequence of HSP70 (antigen; source and nucleotide state not stated) (Homo sapiens (Human)) (P0DMV8 whole entry): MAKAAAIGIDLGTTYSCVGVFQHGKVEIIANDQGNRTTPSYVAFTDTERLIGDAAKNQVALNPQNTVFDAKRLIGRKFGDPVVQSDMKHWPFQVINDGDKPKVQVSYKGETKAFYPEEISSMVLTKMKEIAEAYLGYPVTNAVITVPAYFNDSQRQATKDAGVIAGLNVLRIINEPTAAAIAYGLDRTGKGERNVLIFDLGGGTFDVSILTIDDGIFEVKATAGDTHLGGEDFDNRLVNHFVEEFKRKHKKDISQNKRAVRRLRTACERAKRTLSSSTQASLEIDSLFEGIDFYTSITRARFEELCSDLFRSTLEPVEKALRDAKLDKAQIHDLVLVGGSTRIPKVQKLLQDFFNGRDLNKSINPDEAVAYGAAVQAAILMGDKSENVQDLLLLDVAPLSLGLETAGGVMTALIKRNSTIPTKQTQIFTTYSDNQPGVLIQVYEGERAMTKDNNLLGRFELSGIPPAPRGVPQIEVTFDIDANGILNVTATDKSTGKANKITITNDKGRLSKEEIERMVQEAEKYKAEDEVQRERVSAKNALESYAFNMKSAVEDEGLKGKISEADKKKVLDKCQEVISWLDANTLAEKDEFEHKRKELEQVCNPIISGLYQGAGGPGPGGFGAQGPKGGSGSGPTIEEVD

Row | percent of maximal binding in the presence of the potentially competing antibody [1] | percent of maximal binding in the presence of the potentially competing antibody [2] | percent of maximal binding in the presence of the potentially competing antibody [3] | percent of maximal binding in the presence of the potentially competing antibody [4] | percent of maximal binding in the presence of the potentially competing antibody [5] | percent of maximal binding in the presence of the potentially competing antibody [6] | Substance
1 | 0 | 0.738 | 0.489 | – | – | – | N15F2-5 (Enzo Life Sciences) (antibody)
2 | – | – | – | 0.714 | 0.492 | 0 | C92F3-5 (Fisher Scientific) (antibody)

Source: US20230128075A1
